The values that follow come from patent publication US20210221899A1 (published 2021).

For orientation: Kd means the concentration at which binding is half-saturated. A high value points to weaker binding. A word on the koff: it is the first-order rate constant of dissociation. Higher therefore signals fast dissociation. As usually defined, the kon is the rate constant with which the complex forms. Low values mean slow association, high ones fast association.

The target in one assay is T1, canine NGF (canine, UniProt Q29074 110-229 (pig entry), limits assumed).
T1 construct: The protein was secreted from CHO cells and purified; also called cNGF; canine β-NGF
T1 chain: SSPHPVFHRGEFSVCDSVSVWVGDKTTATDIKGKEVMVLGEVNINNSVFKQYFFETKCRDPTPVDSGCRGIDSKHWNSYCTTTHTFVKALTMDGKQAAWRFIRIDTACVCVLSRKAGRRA
Kind of assay: SPR (Biacore), NGF amine-coupled on chip, antibody injected. On the procedure:
(§1) Antibody binding affinities of the antibodies against canine NGF were determined by surface plasmon resonance (SPR) on a Biacore system (Biocore Life Sciences (GE Healthcare), Uppsala, Sweden). Immobilization of canine and rat NGF were obtained by amine coupling […] NGF using N-hydroxysuccinimide (NHS)/1-Ethyl-3-(3-dimethylaminopropyl) carbodiimide (EDC) chemistry. Chips were quenched with ethanolamine and the affinity with which all candidate mAbs bound to the immobilized NGF was evaluated. Various concentrations of canine and felinized anti-NGF antibodies were injected over the NGF surfaces while the association of the antibody to the antigen and the dissociation of the formed complex were monitored in real time. Kinetic analysis was performed to obtain the equilibrium dissociation constant (KD).
On the technique in general: SPR reads the build-up and loss of mass on a sensor chip optically.

The next assay concerns the target T2, rat NGF (rat, UniProt P25427 122-241).
T2 construct: also called rN
Described as above. On the procedure:
as §1

The next assay has as its target T3, human NGF (human, UniProt P01138 122-241).
T3 construct: also called human Nerve Growth Factor; hN
T3 chain: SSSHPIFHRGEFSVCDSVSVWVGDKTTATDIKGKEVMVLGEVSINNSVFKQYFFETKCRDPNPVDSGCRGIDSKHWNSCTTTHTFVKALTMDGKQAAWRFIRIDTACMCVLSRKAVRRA
Description: SPR (Biacore), human NGF amine-coupled on chip, antibody injected. On the procedure: Antibody binding affinities of the antibodies against human NGF (SEQ ID NO.66) were determined by surface plasmon resonance (SPR). Human NGF was immobilized on the surface of a BIACORE chip by direct amine coupling. Various concentrations of the described humanized anti-NGF antibodies were injected over the human NGF surfaces while the association of the antibody to the antigen and the dissociation of the formed complex were monitored in real time. Kinetic analysis was performed to obtain the equilibrium dissociation constant (KD).

T2 sequence (P25427 122-241 limits assumed): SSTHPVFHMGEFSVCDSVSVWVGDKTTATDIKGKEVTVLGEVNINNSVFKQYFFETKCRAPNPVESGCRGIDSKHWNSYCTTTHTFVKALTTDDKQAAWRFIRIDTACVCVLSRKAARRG

B1: ZTS-841 (antibody, V domains shown)
VH: EVQLVESGGDLVKPGGSLRLSCVASGFTFSSHGMHWVRQSPGKGLQWVAVINSGGSSTYYTDAVKGRFTISRDNAKNTVYLQMNSLRAEDTAMYYCAKESVGGWEQLVGPHFDYWGQGTLVIVSS
VL: QSVLTQPTSVSGSLGQRVTISCSGSTNNIGILGASWYQLFPGKAPKLLVYGNGNRPSGVPDRFSGADSGDSVTLTITGLQAEDEADYYCQSFDTTLGAHVFGGGTHLTVL
notes: Canine mAb; also called 9L12; can9L12
In the assay with canine NGF, B1 returned a Kd of 50.6 pM, a koff of 2.36e-05 s⁻¹ and a kon of 527000 M⁻¹ s⁻¹. In the assay with rat NGF, this molecule yielded a Kd of 108 pM, a koff of 4.61e-05 s⁻¹ and a kon of 587000 M⁻¹ s⁻¹.

B2: ZTS-842 (antibody, V domains shown)
VH: EVQLVESGGDLVKPGGSLRLSCVASGFTFSTYGINWVRQAPGKGLQWVAYISSGGSSTYYADPVKGRFTISRDDAKNMLYLQMNSLRAEDTAIYYCAGSRYTYAYGGGYEFHFWGQGTLVTVSS
VL: QAVLNQPASVSGALGQKVTISCSGSTMDIDIFGVSWYQQLPGKAPKLLVDSDGDRPSGIPDRFSGSRSGNSGTLTITGLQAEDEADYHCQSGDSTLGALAIFGGGTHVTVL
notes: Canine mAb; also called 48L2; can48L2
For B2, in the assay with canine NGF, the Kd came to 21.7 pM, the koff stood at 2.27e-05 s⁻¹ and the kon was determined as 703000 M⁻¹ s⁻¹. In the assay with rat NGF, this molecule showed a Kd of 3.25 pM, a koff of 1.42e-06 s⁻¹ and a kon of 573000 M⁻¹ s⁻¹.

B3: ZTS-205 (antibody, V domains shown)
VH: DVQLVESGGDLVKPGGSLRLTCVASGFTFSTYGINWVRQAPGKGLQWVAYISSGGSSTYYADPVKGRFTISRDNAKNMLYLQMNNLKTEDTATYYCAGSRYTYAYGGGYEFHFWGQGTLVTVSS
VL: QAVLNQPSSVSGALGQRVTISCSGSTMDIDIFGVSWYQQIPGMAPKTIIDSDGDRPSGVPDRFSGSKSGSTGTLTITGLQAEDEADYYCQSGDSTLGALAIFGGGTHVTVLG
notes: Felinized 48L2; also called fel48L2 1.1; fel48L21.1
Take B3: in the assay with canine NGF, the Kd turned out to be 111 pM, the koff was found to be 8.93e-05 s⁻¹ and the kon is 426000 M⁻¹ s⁻¹. In the assay with rat NGF, this molecule yielded a Kd of 277 pM, a koff of 0.00029 s⁻¹ and a kon of 672000 M⁻¹ s⁻¹.

B4: humanized mAb can48L2VH_HM855336.1 / can48L2VL_Z22192.1 (antibody, V domains shown)
VH: EVQLVESGGGLVQPGGSLRLSCAASGFTFSTYGMNWVRQAPGKGLEWVSYISSGGSSIYYADSVKGRFTISRDNAKNSLYLQMNSLRAEDTAVYYCAGSRYTYAYGGGYEFHFWGQGTLVTVSS
VL: QSVVTQPPSVSGAPGQRVTISCTGSTMDIDIFGVSWYQQLPGTAPKLLIYGDGDRPSGVPDRFSGSKSGASASLAITGLQAEDEADYHCQSGDSTLGALAIFGGGTHVTVL
In the assay with human NGF, B4 yielded a Kd of 1250 pM, a koff of 0.000337 s⁻¹ and a kon of 269000 M⁻¹ s⁻¹.

B5: humanized mAb can48L2VH_HM855336.1 / can48L2VL_Z22192.1_P8A (antibody, V domains shown)
VH: EVQLVESGGGLVQPGGSLRLSCAASGFTFSTYGMNWVRQAPGKGLEWVSYISSGGSSIYYADSVKGRFTISRDNAKNSLYLQMNSLRAEDTAVYYCAGSRYTYAYGGGYEFHFWGQGTLVTVSS
VL: QSVVTQPASVSGAPGQRVTISCTGSTMDIDIFGVSWYQQLPGTAPKLLIYGDGDRPSGVPDRFSGSKSGASASLAITGLQAEDEADYHCQSGDSTLGALAIFGGGTHVTVL
In the assay with human NGF, B5 had a Kd of 841 pM, a koff of 0.000212 s⁻¹ and a kon of 252000 M⁻¹ s⁻¹.

B6: humanized mAb can48L2VH_HM855336.1 / can48L2VL_Z22192.1_P14L (antibody, V domains shown)
VH: EVQLVESGGGLVQPGGSLRLSCAASGFTFSTYGMNWVRQAPGKGLEWVSYISSGGSSIYYADSVKGRFTISRDNAKNSLYLQMNSLRAEDTAVYYCAGSRYTYAYGGGYEFHFWGQGTLVTVSS
VL: QSVVTQPPSVSGALGQRVTISCTGSTMDIDIFGVSWYQQLPGTAPKLLIYGDGDRPSGVPDRFSGSKSGASASLAITGLQAEDEADYHCQSGDSTLGALAIFGGGTHVTVL
In the assay with human NGF, B6 registered a Kd of 1490 pM, a koff of 0.000422 s⁻¹ and a kon of 283000 M⁻¹ s⁻¹.

B7: humanized mAb can48L2VH_HM855323.1 / can48L2VL_Z22192.1_P14L (antibody, V domains shown)
VH: EVQLVESGGGLVKPGGSLRLSCAASGFTFSTYGINWVRQAPGKGLEWVSYISSGGSSTYYADSVKGRFTISRDNAKNSLYLQMNSLRAEDTAVYYCAGSRYTYAYGGGYEFHFWGQGTLVTVSS
VL: QSVVTQPPSVSGALGQRVTISCTGSTMDIDIFGVSWYQQLPGTAPKLLIYGDGDRPSGVPDRFSGSKSGASASLAITGLQAEDEADYHCQSGDSTLGALAIFGGGTHVTVL
For the molecule B7, in the assay with human NGF, binding was characterised by a dissociation constant (Kd) of 1.02 pM, the koff amounted to 1.46e-07 s⁻¹ and the kon was 144000 M⁻¹ s⁻¹.
